{"source": "paper PMC8452627", "key": {"[1]": {"biological_target": "human FcγRIIa (human) (UniProt P12318)", "sequence (P12318 34-317)": "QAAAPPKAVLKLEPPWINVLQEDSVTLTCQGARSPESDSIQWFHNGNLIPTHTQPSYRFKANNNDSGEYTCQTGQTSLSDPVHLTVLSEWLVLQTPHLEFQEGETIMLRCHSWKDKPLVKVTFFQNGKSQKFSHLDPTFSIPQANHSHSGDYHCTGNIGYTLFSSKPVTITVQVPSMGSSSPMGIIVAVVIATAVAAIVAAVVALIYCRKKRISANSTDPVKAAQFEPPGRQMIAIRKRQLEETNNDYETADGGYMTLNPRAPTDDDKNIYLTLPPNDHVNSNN", "assay": "SPR; steady-state equilibrium binding assay on ProteOn; human Fcγ receptors"}, "[2]": {"biological_target": "human FcRn (human) (UniProt P55899)", "sequence (P55899 24-365)": "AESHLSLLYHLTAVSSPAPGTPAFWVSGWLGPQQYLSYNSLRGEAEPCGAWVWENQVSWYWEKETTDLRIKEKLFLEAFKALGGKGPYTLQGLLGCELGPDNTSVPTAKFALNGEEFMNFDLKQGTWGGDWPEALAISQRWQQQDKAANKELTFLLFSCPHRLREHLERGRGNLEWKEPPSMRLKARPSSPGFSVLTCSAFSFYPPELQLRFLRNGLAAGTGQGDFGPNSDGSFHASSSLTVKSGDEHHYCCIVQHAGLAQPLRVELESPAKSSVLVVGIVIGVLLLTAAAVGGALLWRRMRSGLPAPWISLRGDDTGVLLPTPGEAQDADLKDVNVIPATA", "assay": "SPR; steady-state equilibrium binding assay on ProteOn; human FcRn at pH 6"}}, "data": [{"substance": "isotype control of human IgG4 S228P (antibody)", "values": [{"measurement": "Kd", "setting": "[1]", "result": 1.4, "unit": "µM"}, {"measurement": "Kd", "setting": "[2]", "result": 6.2, "unit": "µM"}]}]}
